Data: patent publication US7994281 (EUROPEAN MOLECULAR BIOLOGY LABORATORY, dated 2011)
Substitutions are numbered along the chain they refer to. Names may count otherwise. Values belong to the binder of their own block, whether it stands above or below them.

Key:
[1] = target: T1, DR5 (TRAIL-R2) Fc, recombinant receptor from R&D Systems (UniProt O14763 54-182, limits assumed); assay: SPR, Biacore 3000, 37 C, receptor on chip, 1:1 Langmuir global fit, preliminary apparent Kd
T1 construct: also called soluble TRAIL-R2 Fc; immobilized TRAIL-R2 Fc; not shown: Fc part of the bought Fc fusion
Description: (§1) Binding of the purified mutants was assessed in real time using surface plasmon resonance on a Biacore 3000 with a sensor chip as described above. […] Measurements performed at 37° C. to allow increased $koff$ and dissociation was monitored for 20 min. Measured $kon$ and $koff$ rates were used to calculate apparent K_d values for the mutants for the respective receptors. A global fit procedure was used and a 1:1 Langmuir interaction model.

[2] = target: T2, DR4 (TRAIL-R1) Fc, recombinant receptor from R&D Systems (UniProt O00220 24-239, limits assumed); assay: as above
T2 construct: also called soluble TRAIL-R1 Fc; not shown: Fc part of the bought Fc fusion
Description: as §1

[3] = target: T1, DR5 (TRAIL-R2) Fc, recombinant receptor …; assay: SPR, Biacore 3000, 37 C, receptor Fc on CM5 chip, ligand 0.1-250 nM
Description: (§2) Binding experiments were performed using a surface plasmon resonance-based biosensor Biacore 3000 (Biacore AB, Uppsala, Sweden), at 37° C. Recombinant receptors were ordered from R&D systems (R&D systems, Minneapolis, Minn., USA). […] Receptors were coated at a level of ~600-800 RU. […] Between injections the receptor/sensor surface was regenerated using 30 µl of 3 M sodium acetate pH 5.2.

[4] = target: T2, DR4 (TRAIL-R1) Fc, recombinant receptor …; assay: as above
Description: as §2

[5] = target: T3, DcR1 (TRAIL-R3) Fc, recombinant receptor (UniProt O14798 26-221, limits assumed); assay: SPR, Biacore 3000, 37 C, receptor Fc on CM5 chip
T3 construct: not shown: Fc part of the Fc fusion
T3 sequence (looked up): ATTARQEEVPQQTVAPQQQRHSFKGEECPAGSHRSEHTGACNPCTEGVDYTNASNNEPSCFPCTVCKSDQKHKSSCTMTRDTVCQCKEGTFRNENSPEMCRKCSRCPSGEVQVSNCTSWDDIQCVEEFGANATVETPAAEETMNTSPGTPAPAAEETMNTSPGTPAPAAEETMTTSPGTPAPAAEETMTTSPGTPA
Description: as §2

murine RANK (receptor) = target: T4, murine RANK (receptor) (murine, UniProt O35305 31-214, limits assumed); assay: SPR (Biacore): clarified E. coli extract diluted 1:50 injected over immobilised DR4, DR5, DcR1 and RANK; bars are the response as a fraction of the DR4 response
T4 construct: Control surface in the SPR screening
T4 sequence (looked up): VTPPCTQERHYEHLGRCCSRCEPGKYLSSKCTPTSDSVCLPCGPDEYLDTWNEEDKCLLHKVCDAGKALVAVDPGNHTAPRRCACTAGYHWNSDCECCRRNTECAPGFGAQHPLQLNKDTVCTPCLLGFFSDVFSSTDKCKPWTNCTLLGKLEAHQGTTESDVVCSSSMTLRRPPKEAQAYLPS
Description: (§3) Control extracts of BL21 (DE3) culture without an over-expression plasmid and of a BL21 (DE3) culture with plasmid over-expressing SH3 domain were also injected.

[6] = target: T1, DR5 (TRAIL-R2) Fc, recombinant receptor …; assay: SPR, receptor Fc immobilised, ligand 0.1 to 250 nM
Description: as §2
(§4) Combinations between the stability variants and selectivity variants described above can be made, giving variants with enhanced stability and altered selectivity/specificity. […] Mutants were tested for receptor binding and biological activity as described in Examples 1, 2 and 3.

[7] = target: T2, DR4 (TRAIL-R1) Fc, recombinant receptor …; assay: SPR, receptor Fc immobilised, ligand 0.1 to 250 nM
Description: as §2, §4

[8] = target: T2, DR4 (TRAIL-R1) Fc, recombinant receptor …; assay: SPR (Biacore), E. coli extracts diluted 1:50 over immobilised receptor
Description: as §3

[9] = target: T2, DR4 (TRAIL-R1) Fc, recombinant receptor …; assay: SPR, Biacore 3000, 25 C, receptor amine-coupled to CM5 chip, ligand 2 ug/ml
Description: Binding experiments were performed using a surface plasmon resonance-based biosensor Biacore 3000 (Biacore AB, Uppsala, Sweden), at 25° C. Recombinant receptors were ordered from R&D systems (R&D systems, Minneapolis, Minn., USA). Immobilization of the receptors on the sensor surface of a Biacore CM5 sensor chip was performed following a standard amine coupling procedure according to the manufacturer's instructions. A reference surface was generated simultaneously under the same conditions but without receptor injection and used as a blank to correct for instrument and buffer artifacts. […] Binding of ligands to the receptors was monitored in real-time. The receptor/sensor surface was regenerated using 3 M sodium acetate pH 5.2 injections.

T2 sequence (O00220 24-239 limits assumed): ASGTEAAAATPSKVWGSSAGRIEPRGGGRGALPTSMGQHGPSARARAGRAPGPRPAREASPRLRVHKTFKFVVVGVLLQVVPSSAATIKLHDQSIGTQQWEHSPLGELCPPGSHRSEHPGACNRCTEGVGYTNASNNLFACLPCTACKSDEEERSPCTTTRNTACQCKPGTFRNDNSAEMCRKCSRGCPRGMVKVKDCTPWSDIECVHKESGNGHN
T1 sequence (O14763 54-182 limits assumed): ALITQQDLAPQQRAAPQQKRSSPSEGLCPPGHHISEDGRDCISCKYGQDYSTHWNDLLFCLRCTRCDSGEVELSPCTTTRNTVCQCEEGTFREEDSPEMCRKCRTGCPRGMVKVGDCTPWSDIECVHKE

Kd [1]: < 400 pM | Kd [2]: 600 pM | fold improvement in binding relative to wild-type TRAIL [3]: > 10 fold | fold reduction in binding relative to wild-type TRAIL [4]: > 15 fold | fold decrease in binding compared to wild-type TRAIL [5]: ~10 fold
B1: TRAIL mutant D269H (ligand)
chain: VRERGPQRVAAHITGTRGRSNTLSSPNSKNEKALGRKINSWESSRSGHSFLSNLHLRNGELVIHEKGFYYIYSQTYFRFQEEIKENTKNDKQMVQYIYKYTSYPDPILLMKSARNSCWSKDAEYGLYSIYQGGIFELKENDRIFVSVTNEHLIDMHHEASFFGAFLVG

Kd [1]: 500 pM | Kd [2]: 400 pM | binding result (murine RANK (receptor)): no binding
B2: TRAIL mutant G160M (ligand)
chain: B1 chain with G47M, H156D

fold improvement in binding relative to wild-type TRAIL [6]: > 8 fold | fold reduction in binding relative to wild-type TRAIL [7]: > 8 fold
B3: TRAIL mutant D269HM1 (D269H combined with M1: E194I, I196S) (ligand)
chain: B1 chain with E81I, I83S

binding result [8]: binds
B4: TRAIL mutant E195R (ligand)
chain: B1 chain with E82R, H156D

binding result [9]: binds
B5: TRAIL mutant M3 (S225A) (ligand)
chain: B1 chain with S112A, H156D
notes: Stability mutant built on soluble TRAIL 114-281
